# Reference: patent US20060177448
# B1: purified catalytic domain of MT5-MMP (MMP-25) (protein)
# chain: YALSGSVWKKRTLTWRVRSFPQSSQLSQETVRVLMSYALMAWGMESGLTFHEVDSPQGQEPDILIDFARAFHQDSYPFDGLGGTLAHAFFPGEHPISGDTHFDDEETWTFGSKDGEGTDLFAVAVHEFGHALGLGHSSAPNSIMRPFYQGPVGDPDKYRLSQDDRDGLQQLYG
# Target: gDHER2(DIV)-IgG, P04626
protein,measurement,value
B1,"in vitro HER2 cleavage (sheddase) assay, stained gel",All MT-MMPs except MMP-14 efficiently cleave gDHER2(DIV)-IgG substrate
